In patent publication US10808024B2, “Antibodies against immunocomplexes comprising cyanobacterial cyclic peptide hepatotoxins” (priority 2015, dated 2020):
“Also recorded” adds a separate entry of the source.

What was measured:
[1] = system: immunocomplex of CCPH variant and biotinylated anti-Adda mAb; experiment: Quantitative lateral flow test with streptavidin up-converting nanoparticles; assay type: binding; conditions: each CCPH at 1 μg/l
[2] = system: immunocomplexes of CCPH variants and anti-Adda mAb; experiment: Screening and cross-reactivity studies of anti-IC scFv-AP binders, specificity class; assay type: binding
[3] = system: immunocomplex formed by anti-Adda Mab and MC-LR; experiment: BioLayer Interferometry (Octet), binding to immunocomplex; conditions: SA51D1 1 μg/ml
Protocol: (§1) Binding of SA51D1 was explored using Octet RED384 instrument (Pall ForteBio). Three measurements (A, B and C) were performed in duplicates using tilted-bottom 384-well microplates (ForteBio) with 1000 rpm agitation at 30° C. Colorless Assay Buffer (Kaivogen) [0.05 M Tris-HCl, pH 7.75, 0.9% (w/v) NaCl, 0.05% (w/v) NaN3, 0.01% (v/v) Tween 40, 0.05% (w/v) bovine-γ-globulin, 20 μM diethylenetriaminepentaacetate (DTPA), and 0.5% (w/v) bovine serum albumin (BSA)] was used.
(§2) Biotinylated ADDA Mab AD4G2 (1 μg/ml) was immobilized on Streptavidin biosensor (Dip and Read SA Biosensors, ForteBio) for 200 sec. In order to form IC, another loading was performed with MC-LR (1 μg/ml) for 200 sec. In blank measurement (C) only buffer was used instead of MC-LR. All sensors were incubated in buffer for 60 sec.

[4] = BioLayer Interferometry (Octet), pre-incubation with free toxin; assay type: binding; conditions: pre-incubated with 500 μg/L MC-LR
Protocol: as §1, §2

[5] = system: anti-Adda mAb without MC-LR; experiment: BioLayer Interferometry (Octet), binding to naked primary antibody; conditions: SA51D1 1 μg/ml; no MC-LR
Protocol: as §1, §2

[6] = system: biotinylated anti-Adda Mab, no CCPH; experiment: TR-IFMA background signal without CCPH; assay type: binding
Protocol: (§3) By way of example, the specificity of SA51D1 to the immune complex was also seen in our immunoassay, where streptavidin-coated 96-well microtiter wells were used to capture a complex formed by biotinylated anti-Adda Mab, CCPH, SA51D1 antibody fused to alkaline phosphatase and this complex was detected with europium-labelled anti-alkaline phosphatase Pab. […] With 10 μg/l level of MC-LR the fluorescence signal was 789966 counts.

[7] = system: complex of biotinylated anti-Adda Mab and MC-LR; experiment: TR-IFMA signal with MC-LR; assay type: binding; conditions: 10 μg/l MC-LR
Protocol: as §3

B1: SA51D1: group-specific (generic) anti-immunocomplex scFv from synthetic phage display library (antibody, V domains shown)
VH: EVQLLESGGGLVQPGGSLRLSCAASGFTFSNYSMHWVRQAPGKGLEWVSEITPYDGNTDYADSVKGRFTISRDNSKNTLYLQMNSLRAEDTAVYYCAREWWSSNWIYLDYWGQGTLVTVSS
VL: EIVLTQSPGTLSLSPGERATLSCRASQSVSSSNLAWYQQKPGQAPRLLIYGASSRATGVPDRFSGSGSGTDFTLTISRLEPEDFAVYYCQQMHSTPWTFGQGTKVEIKRT
modifications: Clone SA51D1; DOMAIN (31)..(35) CDR1; DOMAIN (50)..(66) CDR2; DOMAIN (99)..(110) CDR3; DOMAIN (24)..(35) CDR1; DOMAIN (51)..(57) CDR2; DOMAIN (90)..(98) CDR3
[1]
  Recognition of nine CCPH variants in lateral flow test: recognizes all CCPH variants tested
[2]
  Specificity of anti-IC antibody (CCPH immunocomplexes recognized): group-specific; also recorded: broad-specific
[3]
  Binding to immunocomplex: binds specifically
[4]
  Affinity towards free MC-LR: does not have affinity; also recorded: no affinity
[5]
  Binding to anti-Adda mAb alone: no interaction; also recorded: neglegtable binding
[6]
  Background fluorescence signal level: 404 counts
[7]
  Fluorescence signal: 789966 counts
